# Test results from patent publication US20240252641A1 (TCR2 THERAPEUTICS, published 2024).
# Where a chain is given by its changes, count along the chain named.
# T1: human CD70, recombinant, N-terminally biotinylated (residues 39-193) (human, UniProt P32970 39-193, N-terminal biotin)
# T1 construct: range 39-193; the same entry is used there; also called biotinylated human CD70; CD70 biotin
# T1 sequence (looked up): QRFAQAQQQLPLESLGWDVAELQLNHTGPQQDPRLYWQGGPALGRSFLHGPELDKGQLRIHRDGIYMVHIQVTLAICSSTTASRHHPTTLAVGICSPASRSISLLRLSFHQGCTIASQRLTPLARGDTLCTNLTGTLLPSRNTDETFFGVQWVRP
# T2: CD70 on cells (CHO-CD70, JVM-3, U266, Raji, THP-1, T cells) (human, UniProt P32970 1-193)
# T2 construct: whole, on cells; also called cell-surface CD70
# T2 sequence (looked up): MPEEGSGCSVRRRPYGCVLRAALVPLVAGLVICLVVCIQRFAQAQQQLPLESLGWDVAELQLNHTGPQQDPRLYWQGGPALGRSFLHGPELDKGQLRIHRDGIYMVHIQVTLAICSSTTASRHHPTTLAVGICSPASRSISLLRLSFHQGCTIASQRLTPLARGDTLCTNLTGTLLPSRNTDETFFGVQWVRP
# B1: 50-TC7-III-A11 (scFv)
# scFv: QVQLVQSGAEVKRPGASVKVSCKASGYTFTSYYMHWVRQAPGQGLEWMGIINPSGGSTSYAQKFQGRVTMTRDTSTSTVYMELSSLRSEDTAVYYCAIEPGYCSGGSCYPDAFDIWGQGTTVTVSSGGSGGSGGSGGSQSVLTQPPSASGTPGQRVTISCSGSSSNIGSDYVYWYQRVPGTAPKLLIYRDNQRPSGVPDRFSGSKSGTSASLAISGLRSDDEADYYCAAWDDSLSGWVFGGGTKVTVL
# notes: His-tagged; also called 1985
# B2: 16-TC4-I-C11 (scFv)
# scFv: QVQLVQSGAEVKKPGSSVKVSCKASGGTFSSYAISWVRQAPGQGLEWMGWISAYNGNTNYAQKLQGRVTMTTDTSTSTAYMELRSLRSDDTAVYYCARVTPPGWLGNMDVWGKGTTVTVSSGGSGGSGGSGGSSYELMQSPSVSVAPGQTARITCGGRDIGSKSVHWYQQKPGQAPVLVVYDDSDRPSGIPERLSGSNFGNEATLTISRVEAGDEGDYFCQVWDSSTDVVFGGGTKVTVL
# notes: His-tagged
# B3: 15-TC7-I-D07 (scFv)
# scFv: QVQLQQWGAGLLKPSETLSLTCAVYGGSFSGYYWSWIRQPPGKGLEWIGEINHSGSTNYNPSLKSRVTISVDTSKNQFSLKLSSVTAADTAVYYCARVSRSRGAFDIWGQGTMVTVSSGGSGGSGGSGGSQSALTQPASVSGSPGQSITISCTGTNSDVGAYNYVSWYQQHPGKAPKLMIYEVTNRPSGVSNRFSGSKSGNTASLTISGLQAEDEADYYCSSYTSSGTWVFGGGTKLTVL
# notes: His-tagged
# B4: 60-TC7-VII-C02 (scFv)
# scFv: QVQLQQWGAGLLKPSETLSLTCAVYGGSFSGYYWSWIRQPPGKGLEWIGEINHSGSTNYNPSLKSRVTISVDTSKNQFSLKLSSVTAADTAVYYCARSPLWFGPPDAFDIWGQGTMVTVSSGGSGGSGGSGGSQSALTQPPSASGSPGQSVSISCTGTSSDVGGYNYVSWYQQHPGKAPKLIIYDVDKRPSGIPERFSGSNSGNTATLTISGTQAMDEADYYCQAWDSSTEVVFGGGTKVTVL
# notes: His-tagged
# B5: 4-TC4-I-G08 (scFv)
# scFv: QVQLVQSGGGVVQPGRSLRLSCAASGFTFSSYAMHWVRQAPGKGLEWVAVISYDGSNKYYADSVKGRFTISRDNAKNSLYLQMNSLRDEDTAVYYCARDESFDYGVDVWGKGTTVTVSSGGSGGSGGSGGSSSELTQDPAVSVALGQTVRITCQGDSLRSYYASWYQQKPGQAPVLVIYGKNNRPSGIPDRFSGSSSGNTASLTITGAQAEDEADYYCNSRDSSGNHLVVFGGGTKLTVL
# notes: His-tagged
# B6: 42-TC4-VII-G08 (scFv)
# scFv: B5 scFv with A75S, S78T, D88A, E100L, F102Y, V106F, V108Y, K111Q, T114L, L237V
# notes: His-tagged
# B7: 49-TC4-XVI-F01 (scFv)
# scFv: QVQLVESGGGVVQPGRSLRLSCAASGFTFSSYAMHWVRQAPGKGLEWVAVISYDGSNKYYADSVKGRFTISRDNSKNTLYLQMNSLRAEDTAVYYCARDSTQDYGMDVWGQGTMVTVSSGGSGGSGGSGGSSSELTQDPAVSVALGQTVRITCQGDSLRNYYASWYQQKPGQAPVLVFYGKNNRPSGIPDRFSGSSSGNTASLTITGAQAEDEADYYCNSRDSSGNHLVVFGGGTKLTVL
# notes: His-tagged
# B8: 39-TC6-IV-B08 (scFv)
# scFv: QVQLVESGGGVVQPGGSLRLSCAASGFTFSSYAMHWVRQAPGKGLEWVAVISYDGSNKYYADSVKGRFTISRDNSKNTLYLQMNSLRAEDTAVYYCARDGHPYYYGMDVWGQGTTVTVSSGGSGGSGGSGGSQSALTQPASVSGSPGQSITISCTGTSSDVGDYNYVSWYQHHPGKAPKLMIYDVSNRPSGVSNRFSGSKSGNTASLTISGLQAEDEADYYCGSYTGSDTWVFGGGTKVTVL
# notes: His-tagged; also called 1885
# B9: 32-TC1.2-I-F07-6 (scFv)
# scFv: QVQLVQSGAEVKKPGESLKISCKGSGYSFTSYWIGWVRQMPGKGLEWMGIIYPGESDTRYSPSFQGQVTISADKSISTAYLQWSSLKASDTAMYYCARRNYYDRSGYVDAFDIWGQGTMVTVSSGGSGGSGGSGGSSSELTQDPAVSVALGQTVRITCQGDSLRRFYASWHQQKPGQAPIVVMYAENNRPSGIPDRFSGSSSGNTASLTITGAQAEDEATYYCNSRDSSGNRHVFGTGTKLTVL
# notes: His-tagged
# B10: 13-TC7-V-H10 (scFv)
# scFv: QVQLQQWGAGLLKPSETLSLTCAVYGGSFSGYYWSWIRQPPGKGLEWIGEINHSGSTNYNPSLKSRVTISVDTSKNQFSLKLSSVTAADTAVYYCARSRRPYWYFDLWGRGTLVTVSSGGSGGSGGSGGSQSALTQPASVSGSPGQSITISCTGTSSDVGGYNSVSWYRQHPGKAPKLMIYDVTNRPSGVSNRFSGSKSGNTASLTISGLQAEDEADYYCSSSSISATWVFGGGTKLTVL
# notes: His-tagged
# B11: 53-TC7-VI-B06 (scFv)
# scFv: EVQLLESGGGVVQPGRSLRLSCAASGFTFSSYGMHWVRQAPGKGLEWVAVISYDGSNKYYADSVKGRFTISRDNSKNTLYLQMNSLRAEDTAVYYCAKGELELTNWGQGTLVTVSSGGSGGSGGSGGSSYELTQPPSVSVAPGQTARITCGGNNIGSKSVHWYQQKSGQAPVLVVYDDTDRPSGTPERFSGSNSGNTATLTISGTQAMDEADYYCQAWDSSTAVFGTGTKVTVL
# notes: His-tagged
# B12: 37-TC7-VII-D05 (scFv)
# scFv: QMQLVQSGGGVVQPGRSLRLSCAASGFTFSSYAMHWVRQAPGKGLEWVAVISYDGSNKYYADSVKGRFTISRDNSKNTLYLQMNSLRAEDTAVYYCARDALWDTATFDYWGQGTLVTVSSGGSGGSGGSGGSSSELTQDPAVSVALGQTVRITCQGDSLRSYYASWYQQKPGQAPVLVIYGKNNRPSGIPDRFSGSSSGNTASLTITGAQAEDEADYYCNSRDSSGNPWVFGGGTKLTVL
# notes: His-tagged
# B13: 47-TC7-III-D10 (scFv)
# scFv: QVQLVQSGAEVKKPGASVKVSCKASGYTFTSYGISWVRQAPGQGLEWMGWISAYNGNTNYAQKLQGRVTMTTDTSTSTAYMELRSLRSDDTAVYYCARDSSSWYYYYGMDVWGQGTTVTVSSGGSGGSGGSGGSSYELTQPPSVSVSPGQTARISCSGDALPNQYAYWYQQKPGQAPVLVIYQDSERPSGIPERFSGSSSGTTVTLTISGVQAEDEADYYCQSADTYGTSWVFGGGTKLTVL
# notes: His-tagged
# Target: T1, human CD70, recombinant, N-terminally …
# Experiment: CD27 blocking ELISA, 3 µM scFv, anti-His/HRP; note: unit not given here
# Description: Human scFv antibodies binding CD70 were generated by panning a naïve human library with the extracellular domain (aa39-193) of CD70. 53 antibodies were identified. The ability of CD27 to block CD70 binding of the identified antibodies was measured by ELISA using two different assays. In the first assay, CD27 and his-tagged scFv anti-CD70 binders were simultaneously added to surface bound CD70, and the ability of the scFv binders to bind CD70 was detected with anti-His HRP. In the second assay, plate-bound CD70 was pre-incubated with CD27 for 30 minutes, and then additional CD27 and the his-tagged scFv anti-CD70 binder was added. The ability of the scFv binders to bind CD70 was detected with anti-His HRP. FIG. 34 is a schematic of the two different CD27 blocking assays. CD70 affinity was also measured by SPR analysis. scFv antibodies were also tested for their ability to bind tumor cell lines with high (CHO-CD70, JVM3, and U266) and low levels (CHO WT and K562 of CD70 expression. Results for 39 antibodies are shown in Table 1 below.
row,Binder,anti His/HRP
1,B1,2.25
2,B2,2.1
3,B3,2.5
4,B4,1.27
5,B5,2.29
6,B6,2.34
7,B7,2.12
8,B8,2.97
9,B9,2.42
10,B10,1.97
11,B11,1.38
12,B12,2.28
13,B13,1.5

# Target: T2, CD70 on cells (CHO-CD70, JVM-3, U266, …)
# Experiment: 1.25 µg/mL scFv on CHO-CD70 cells
# Outline: (§1)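 Tumour cell lines with high CD70 expression (CHO-CD70, JVM3, U266) or low CD70 expression (CHO WT, K562) were used to assess cell binding of human scFv antibodies, with results recorded per line. These antibodies had been selected by panning a naïve human library on the CD70 extracellular domain (aa39-193).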
row,Binder,cell binding
1,B1,122000
2,B2,660000
3,B3,271000
4,B4,458000
5,B5,387000
6,B6,364000
7,B7,134000
8,B8,52200
9,B9,553000
10,B10,601000
11,B11,12200
12,B12,111000
13,B13,313000

# Target: T2, CD70 on cells (CHO-CD70, JVM-3, U266, …)
# Experiment: 1.25 µg/mL scFv on JVM-3 cells
# Outline: as §1
row,Binder,cell binding
1,B1,12200
2,B2,103000
3,B3,50900
4,B4,10800
5,B5,34000
6,B6,33900
7,B7,5410
8,B8,25300
9,B9,57300
10,B10,87500
11,B11,1830
12,B12,11000
13,B13,34700

# Target: T1, human CD70, recombinant, N-terminally …
# Experiment: SPR
# Outline: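 Human scFv antibodies came from panning a naïve human library against the CD70 extracellular domain (aa39-193). Their affinity (Kd) for recombinant, N-terminally biotinylated human CD70 was measured by surface plasmon resonance (SPR) analysis.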
row,Binder,Kd [nM]
1,B1,4190
2,B2,40.2
3,B3,1750
4,B4,135
5,B5,1410
6,B6,179
7,B7,1060
8,B8,2890
9,B9,7.41
10,B10,66.9
11,B11,235
12,B12,5640
13,B13,18.6

# Target: T1, human CD70, recombinant, N-terminally …
# Experiment: CD27 blocking ELISA, 3 µM scFv, strep/HRP
row,Binder,strep/HRP
1,B1,0.868
2,B2,1.43
3,B3,1.45
4,B4,1.58
5,B5,1.03
6,B6,1.11
7,B7,1.29
8,B8,0.268
9,B9,0.113
10,B10,1.38
11,B11,1.44
12,B12,0.655
13,B13,1.55

# Target: T2, CD70 on cells (CHO-CD70, JVM-3, U266, …)
# Experiment: 1.25 µg/mL scFv on U266 cells
# Outline: as §1
row,Binder,cell binding
1,B1,45000
2,B2,51000
3,B3,42900
4,B4,5040
5,B5,23500
6,B6,13100
7,B7,2980
8,B8,35900
9,B9,20700
10,B10,34300
11,B11,1170
12,B12,15900
13,B13,19000
